Residue numbers refer to the chain shown, from its start.
B1: M103205H795-MY446/M103202L889-SK1 (antibody, human IgG1, kappa)
heavy: QVTLKESGPVLVKPTETLTLTCTVSGIDLSHDDISWVRQAPGKGLEWVGIISYAGSTYYASWAKGRLTISKDTSKNQVVLTMTNMDPVDTATYYCARGVPAYSHGGDLWGQGTLVTVSSASTKGPSVFPLAPSSKSTSGGTAALGCLVKDYFPEPVTVSWNSGALTSGVHTFPAVLQSSGLYSLSSVVTVPSSSLGTQTYICNVNHKPSNTKVDKKVEPKSCDKTHTCPPCPAHELLTGPSVFLFPPKPKDTLMISRTPEVTCVVVDVSDEDPEVKFNWYVDGVEVHNAKTKPREEQYNSTYRVVSVLTVLHQDWLNGKEYKCKVSNKALPKPIEKTISKAKGQPREPQVYTLPPSREEMTKNQVSLTCLVKGFYPSDIAVEWESNGQPENNYKTTPPVLDSDGSFFLYSKLTVDKSRWQQGNVFSCSVMHEALHNHYTQKSLSLSP
light: DIVMTQSPATLSLSPGERATLSCTSSQSVYHANWLSWFQQKPGQPPKLLIYWASTLAYGVPSRFSGSGSGTDFTLTISSLQPEDAATYYCAGGYGGGRYAFGQGTKVEIKRTVAAPSVFIFPPSDEQLKSGTASVVCLLNNFYPREAKVQWKVDNALQSGNSQESVTEQDSKDSTYSLSSTLTLSKADYEKHKVYACEVTHQGLSSPVTKSFNRGEC
notes: copies: 2 + 2
B2: M103205H795-MY460/M103202L889-SK1 (antibody, human IgG1, kappa)
heavy: B1 heavy with A233E, H234P
light: B1 light
notes: copies: 2 + 2
B3: M103205H795-MY467/M103202L889-SK1 (antibody, human IgG1, kappa)
heavy: B1 heavy with A233M, H234P
light: B1 light
notes: copies: 2 + 2
B4: M103205H795-MY463/M103202L889-SK1 (antibody, human IgG1, kappa)
heavy: B1 heavy with A233H, H234P
light: B1 light
notes: copies: 2 + 2
B5: M103205H795-MY461/M103202L889-SK1 (antibody, human IgG1, kappa)
heavy: B1 heavy with A233F, H234P
light: B1 light
notes: copies: 2 + 2
B6: M103205H795-MY459/M103202L889-SK1 (antibody, human IgG1, kappa)
heavy: B1 heavy with A233D, H234P
light: B1 light
notes: copies: 2 + 2
B7: M103205H795-MY465/M103202L889-SK1 (antibody, human IgG1, kappa)
heavy: B1 heavy with A233K, H234P
light: B1 light
notes: copies: 2 + 2
B8: M103205H795-MY447/M103202L889-SK1 (antibody, human IgG1, kappa)
heavy: B1 heavy with H234I
light: B1 light
notes: copies: 2 + 2
B9: M103205H795-MY466/M103202L889-SK1 (antibody, human IgG1, kappa)
heavy: B1 heavy with A233L, H234P
light: B1 light
notes: copies: 2 + 2
B10: M103205H795-MY469/M103202L889-SK1 (antibody, human IgG1, kappa)
heavy: B1 heavy with A233P, H234P
light: B1 light
notes: copies: 2 + 2
B11: M103205H795-MY448/M103202L889-SK1 (antibody, human IgG1, kappa)
heavy: B1 heavy with H234K
light: B1 light
notes: copies: 2 + 2
B12: M103205H795-MY464/M103202L889-SK1 (antibody, human IgG1, kappa)
heavy: B1 heavy with A233I, H234P
light: B1 light
notes: copies: 2 + 2
B13: M103205H795-MY468/M103202L889-SK1 (antibody, human IgG1, kappa)
heavy: B1 heavy with A233N, H234P
light: B1 light
notes: copies: 2 + 2
B14: M103205H795-MY462/M103202L889-SK1 (antibody, human IgG1, kappa)
heavy: B1 heavy with A233G, H234P
light: B1 light
notes: copies: 2 + 2

Columns and labels:
Test in all cases: SPR (BIACORE); KD of SG1 divided by KD of variant;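 note: relative to parent M103205H795-SG1 carrying the SG1 human heavy chain constant region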
[1] = target: T1, human FcγRIIaR extracellular domain, His-tagged (human, UniProt P12318 34-217)
T1 construct: also called human FcγRIIa (type R); FcgRIIaR; not shown: C-terminal His-tag
T1 chain: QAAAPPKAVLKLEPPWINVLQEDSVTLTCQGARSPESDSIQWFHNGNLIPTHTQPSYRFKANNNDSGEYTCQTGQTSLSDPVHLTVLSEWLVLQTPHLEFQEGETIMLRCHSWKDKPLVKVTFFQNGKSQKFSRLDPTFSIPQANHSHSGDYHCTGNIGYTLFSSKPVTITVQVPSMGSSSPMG
Procedure: (§1) The kinetic analysis of interactions between these antibodies and FcγR was carried out using BIACORE® T200 or BIACORE® 4000 (GE Healthcare). HBS-EP+ (GE Healthcare) was used as the running buffer, and the measurement temperature was set to 25° C. A chip produced by immobilizing Protein A. Protein A/G or mouse anti-human IgG kappa light chain (BD Biosciences) onto a Series S Sensor Chip CM4 or CM5 (GE Healthcare) by the amine-coupling method was used. […] After the measurement, the antibody captured on the chip was washed off by allowing reaction with 10 mM glycine-HCl, pH1.5 and 25 mM NaOH so that the chip was regenerated and used repeatedly. The sensorgrams obtained as measurement results were analyzed by the 1:1 Langmuir binding model using the BIACORE® Evaluation Software to calculate the binding rate constant ka (L/mol/s) and dissociation rate constant kd (l/s), and the dissociation constant KD (mol/L) was calculated from these values. […] Regarding such interactions, KD values were calculated using the following 1:1 binding model described in BIACORE® T100 Software Handbook BR1006-48 Edition AE.

[2] = target: T2, human FcγRIIIaV extracellular domain, His-tagged (human, UniProt P08637 17-208)
T2 construct: also called FcgRIIIaV; not shown: C-terminal His-tag
Procedure: as §1

[3] = target: T3, cynomolgus monkey FcγRIIa1 extracellular domain, His-tagged (cynomolgus monkey)
T3 construct: also called cyno FcγRIIa1; cynoFcgRIIa1; not shown: C-terminal His-tag
T3 chain: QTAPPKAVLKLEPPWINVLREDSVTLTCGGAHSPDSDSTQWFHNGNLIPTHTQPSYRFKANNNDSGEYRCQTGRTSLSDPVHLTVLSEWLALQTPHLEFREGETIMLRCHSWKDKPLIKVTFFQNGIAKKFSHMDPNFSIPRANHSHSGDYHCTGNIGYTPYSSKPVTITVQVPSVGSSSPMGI
Procedure: as §1

[4] = target: T4, cynomolgus monkey FcγRIIIaS extracellular domain, His-tagged (cynomolgus monkey, UniProt Q8SPW2 21-206 at identity 1.00))
T4 construct: also called cyno FcγRIIIaS; cynoFcγRIIIaS; not shown: C-terminal His-tag
T4 chain: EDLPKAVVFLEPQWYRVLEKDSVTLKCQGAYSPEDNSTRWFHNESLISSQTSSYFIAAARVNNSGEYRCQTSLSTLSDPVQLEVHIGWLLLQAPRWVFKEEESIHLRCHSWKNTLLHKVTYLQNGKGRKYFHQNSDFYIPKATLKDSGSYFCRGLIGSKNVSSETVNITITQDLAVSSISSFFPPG
Procedure: as §1

[5] = target: T5, cynomolgus monkey FcγRIIa3 extracellular domain, His-tagged (cynomolgus monkey)
T5 construct: also called cyno FcγRIIa3; cynoFcgRIIa3; not shown: C-terminal His-tag
T5 chain: T3 chain with P95T, T121A, A128S, H133P, D135N
Procedure: as §1

[6] = target: T6, cynomolgus monkey FcγRIIb extracellular domain, His-tagged (cynomolgus monkey)
T6 construct: also called cyno FcγRIIb; cynoFcγRIIb; not shown: C-terminal His-tag
T6 chain: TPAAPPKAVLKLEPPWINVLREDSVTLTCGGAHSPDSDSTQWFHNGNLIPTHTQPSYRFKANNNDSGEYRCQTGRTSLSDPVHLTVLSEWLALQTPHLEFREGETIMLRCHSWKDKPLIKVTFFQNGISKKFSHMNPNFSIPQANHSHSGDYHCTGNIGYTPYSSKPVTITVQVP
Procedure: as §1

[7] = target: T7, cynomolgus monkey FcγRIIa2 extracellular domain, His-tagged (cynomolgus monkey)
T7 construct: also called cyno FcγRIIa2; cynoFcgRIIa2; not shown: C-terminal His-tag
T7 chain: T3 chain with P95T, T121A, I127K, A128S, K130N, D135N, R142Q
Procedure: as §1

T2 sequence (P08637 17-208 F176V): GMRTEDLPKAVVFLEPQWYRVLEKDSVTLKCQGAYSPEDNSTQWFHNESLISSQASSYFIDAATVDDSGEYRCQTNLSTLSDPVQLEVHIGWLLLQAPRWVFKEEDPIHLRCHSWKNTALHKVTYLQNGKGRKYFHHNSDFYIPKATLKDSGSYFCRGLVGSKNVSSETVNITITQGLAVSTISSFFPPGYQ

Binder	KD fold (SG1 = 1) [1]	KD fold (SG1 = 1) [2]	KD fold (SG1 = 1) [3]	KD fold (SG1 = 1) [4]	KD fold (SG1 = 1) [5]	KD fold (SG1 = 1) [6]	KD fold (SG1 = 1) [7]
B1	2.3 fold	0.1 fold	1.3 fold	0.1 fold	3.6 fold	2.6 fold	2.3 fold
B2	2 fold	0.1 fold	1 fold	0.1 fold	3.1 fold	2.3 fold	1.6 fold
B3	3.1 fold	0.2 fold	1.7 fold	0.2 fold	3.6 fold	2.5 fold	2.7 fold
B4	2.2 fold	0.2 fold	1.5 fold	0.2 fold	3.9 fold	3.1 fold	2.3 fold
B5	3.2 fold	0.3 fold	1.8 fold	0.2 fold	4.9 fold	3.8 fold	2.5 fold
B6	2 fold	0.1 fold	0.6 fold	0.1 fold	2.3 fold	1.6 fold	1.1 fold
B7	1.8 fold	0.1 fold	1.6 fold	0.2 fold	3.3 fold	2.6 fold	1.3 fold
B8	11.2 fold	0.2 fold	3.2 fold	0.5 fold	11.3 fold	7.8 fold	5.3 fold
B9	4.2 fold	0.3 fold	1.7 fold	0.2 fold	3.9 fold	3.5 fold	2.3 fold
B10	2.6 fold	0.1 fold	1.5 fold	0.2 fold	3.5 fold	3 fold	2.4 fold
B11	0.5 fold	0.1 fold	0.3 fold	0.1 fold	0.8 fold	0.6 fold	0.7 fold
B12	4.2 fold	0.2 fold	1.7 fold	0.2 fold	4.4 fold	3.6 fold	3.4 fold
B13	2.3 fold	0.1 fold	1.1 fold	0.2 fold	3.3 fold	2.8 fold	2 fold
B14	2.2 fold	0.3 fold	1.7 fold	0.2 fold	4 fold	3.8 fold	3.2 fold

Reference: patent US20200317768A1 (published 2020)
